Data reported in US20240166765A1 (ICONIC THERAPEUTICS, published 2024).
Positions count from the first letter of the chain named. Where two headings read alike, the source gives them in different places.

Experiments:
pig TF-His = biological target: T1, pig TF-His (pig (Sus scrofa)); experiment: SPR (Biacore), antibody captured by anti-human IgG on CM5 chip, pig TF-His in solution, 1:1 model
T1 construct: also called pig TF ECD-His; pTF
T1 chain: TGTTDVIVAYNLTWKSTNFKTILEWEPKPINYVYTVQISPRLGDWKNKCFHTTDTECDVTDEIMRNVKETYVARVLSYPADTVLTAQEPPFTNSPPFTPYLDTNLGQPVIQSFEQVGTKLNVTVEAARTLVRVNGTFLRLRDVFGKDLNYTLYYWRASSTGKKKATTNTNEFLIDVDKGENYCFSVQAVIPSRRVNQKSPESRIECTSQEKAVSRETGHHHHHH

rabbit TF-His = biological target: T2, rabbit TF-His (rabbit (Oryctolagus cuniculus), UniProt P24055 33-250); experiment: SPR (Biacore), antibody captured by anti-human IgG on CM5 chip, rabbit TF-His in solution, 1:1 model
T2 construct: also called rabbit TF ECD-His
T2 sequence (P24055 other isoform, or with tags, fused parts or gaps): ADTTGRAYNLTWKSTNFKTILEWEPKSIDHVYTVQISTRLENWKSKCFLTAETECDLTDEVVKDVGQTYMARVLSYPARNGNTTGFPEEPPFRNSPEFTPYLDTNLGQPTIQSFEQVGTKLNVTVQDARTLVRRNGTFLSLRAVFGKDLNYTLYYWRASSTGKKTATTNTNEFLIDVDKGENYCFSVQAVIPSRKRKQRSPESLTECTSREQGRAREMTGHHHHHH

human TF ECD-His6 [1] = biological target: T3, human TF ECD-His6 (human, UniProt P13726 33-251); experiment: BLI (ForteBio Octet)
T3 construct: made in Expi293 cells; the entry holds the ECD with the C-terminal TG-His6; also called TF-His; hTF

cynomolgus TF ECD-His6 [2] = biological target: T4, cynomolgus TF ECD-His6 (cynomolgus monkey (Macaca fascicularis)); experiment: BLI (ForteBio Octet)
T4 construct: made in Expi293 cells; also called TF-His; cTF
T4 chain: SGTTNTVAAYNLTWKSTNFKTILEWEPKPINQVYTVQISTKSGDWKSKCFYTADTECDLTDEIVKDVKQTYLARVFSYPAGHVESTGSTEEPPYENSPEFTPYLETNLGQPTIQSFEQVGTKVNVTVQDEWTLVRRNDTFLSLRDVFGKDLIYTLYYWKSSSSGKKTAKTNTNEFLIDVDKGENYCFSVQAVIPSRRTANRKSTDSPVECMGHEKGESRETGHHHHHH

human TF ECD-His6 [3] = biological target: T3, human TF ECD-His6; experiment: SPR (Biacore), antibody on chip, TF-His titrated
cynomolgus TF ECD-His6 [4] = biological target: T4, cynomolgus TF ECD-His6; experiment: SPR (Biacore), antibody on chip, TF-His titrated
relipidated TF [5] = biological target: T5, relipidated TF (UniProt P13726 33-295, limits assumed); experiment: cell-based or functional assay
relipidated TF [6] = biological target: T5, relipidated TF; experiment: cell-based or functional assay; remark: listed apart in the source
relipidated TF [7] = biological target: T5, relipidated TF; experiment: cell-based or functional assay; remark: listed apart in the source
[8] = biological target: rTF (rat TF) on HEK293 cells (rat, UniProt P42533 29-252); experiment: live cell staining of transfected HEK293, flow cytometry
rTF (rat TF) on HEK293 cells, sequence (P42533 29-252): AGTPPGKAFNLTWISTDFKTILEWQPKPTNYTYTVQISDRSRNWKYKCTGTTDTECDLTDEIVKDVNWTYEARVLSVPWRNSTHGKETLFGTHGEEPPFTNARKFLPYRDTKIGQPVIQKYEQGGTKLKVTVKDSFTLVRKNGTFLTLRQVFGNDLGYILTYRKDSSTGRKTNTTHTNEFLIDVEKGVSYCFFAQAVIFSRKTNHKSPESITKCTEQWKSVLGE

relipidated TF [9] = biological target: T5, relipidated TF; experiment: cell-based or functional assay; remark: listed apart in the source
[10] = biological target: T6, human Tissue Factor on MDA-MB-231 cells (human, UniProt P13726 33-295); experiment: cell-based or functional assay
[11] = biological target: T6, human Tissue Factor on MDA-MB-231 cells; experiment: flow cytometry, MDA-MB-231 cells; binding of 20 nM FVII-Fc-Alexa488 (competitor) left at 83 nM Ab
[12] = biological target: T6, human Tissue Factor on MDA-MB-231 cells; experiment: cell-based or functional assay; remark: listed apart in the source

B1: 43D7 (antibody, human IgG1, kappa, V domains shown)
VH: QVQLQQWGAGLLKPSETLSLTCAVYGGSLSGYYWSWIRQPPGKGLEWIGEIGASGSTRYNPSLKSRVTISVDTSKNQFSLKLSSVTAADTAVYYCARDTPYYYEGGYYYYMDVWGKGTTVTVSS
VL: EIVLTQSPGTLSLSPGERATLSCRASDSVDSSYLAWYQQKPGQAPRLLIYGAFSRANGIPDRFSGSGSGTDFTLTISRLEPEDFAVYYCQQAGVVPYTFGGGTKVEIKR
notes: Human IgG1; also called antibody 43D7
With B1 the Kd (pig TF-His) was 8.8 nM and the Kd (rabbit TF-His) was 6.8 nM.

B2: 43D8 (antibody, human IgG1, kappa, V domains shown)
VH: B1 VH
VL: B1 VL with D27Q, D30S, Y33F, F53Y, N57T
notes: Human IgG1; also called antibody 43D8; 43D8 mAb
B2 showed a Kd (pig TF-His) of 19.2 nM and a Kd (rabbit TF-His) of 7.7 nM.

B3: 39A (antibody, human IgG1, V domains shown)
VH: QVQLVQSGAEVKKPGSSVKVSCKASGGTFSSNAIGWVRQAPGQGLEWMGSIIPIIGFANYAQKFQGRVTITADESTSTAYMELSSLRSEDTAVYYCARDSGYYYGASSFGMDVWGQGTTVTVSS
VL: EIVMTQSPATLSVSPGERATLSCRASQSVSSNLAWYQQKPGQAPRLLIYGASTRATGIPARFSGSGSGTEFTLTISSLQSEDFAVYYCEQYNNLPLTFGGGTKVEIK
notes: human IgG1
For B3, the Kd (human TF ECD-His6 [1]) was 0.83 nM, the Kd (cynomolgus TF ECD-His6 [2]) was 0.57 nM and the Kd (human TF ECD-His6 [3]) was 0.09 nM. For the same binder, the Kd (cynomolgus TF ECD-His6 [4]) was 0.08 nM, the “decrease of peak IIa concentration, TGA with 10 min pre-incubation, 100 nM Ab” value (relipidated TF [5]) was 93% and the “decrease of peak IIa concentration, TGA without pre-incubation, 100 nM Ab” value (relipidated TF [5]) was 91%. The “TGA without pre-incubation, 10 nM Ab: % ETP” value (relipidated TF [6]) was 55%, the “TGA without pre-incubation, 10 nM Ab: % Peak IIa” value (relipidated TF [6]) was 20% and the “TGA without pre-incubation, 10 nM Ab: ETP” value (relipidated TF [6]) was 1330 nM·min. For the same binder, the “TGA without pre-incubation, 10 nM Ab: Lag Time” value (relipidated TF [6]) was 12.1 min, the “TGA without pre-incubation, 10 nM Ab: Peak IIa” value (relipidated TF [6]) was 82 nM and the “TGA without pre-incubation, 10 nM Ab: ttPeak” value (relipidated TF [6]) was 19.6 min. For the same binder, the “TGA without pre-incubation, 50 nM Ab: % Peak IIa” value (relipidated TF [6]) was 7%, the “TGA without pre-incubation, 50 nM Ab: Lag Time” value (relipidated TF [6]) was 30.5 min and the “TGA without pre-incubation, 50 nM Ab: Peak IIa” value (relipidated TF [6]) was 30 nM. The “TGA without pre-incubation, 50 nM Ab: ttPeak” value (relipidated TF [6]) was 40 min, the “TGA without pre-incubation, 100 nM Ab: % Peak IIa” value (relipidated TF [6]) was 6% and the “TGA without pre-incubation, 100 nM Ab: Lag Time” value (relipidated TF [6]) was 28.9 min. The “TGA without pre-incubation, 100 nM Ab: Peak IIa” value (relipidated TF [6]) was 26 nM, the “TGA without pre-incubation, 100 nM Ab: ttPeak” value (relipidated TF [6]) was 40.1 min and the “TGA with 10 min pre-incubation, 10 nM Ab: % Peak IIa” value (relipidated TF [7]) was 11%. The “TGA with 10 min pre-incubation, 10 nM Ab: Lag Time” value (relipidated TF [7]) was 20.9 min, the “TGA with 10 min pre-incubation, 10 nM Ab: Peak IIa” value (relipidated TF [7]) was 30 nM and the “TGA with 10 min pre-incubation, 10 nM Ab: ttPeak” value (relipidated TF [7]) was 30.8 min. The “TGA with 10 min pre-incubation, 50 nM Ab: % Peak IIa” value (relipidated TF [7]) was 8%, the “TGA with 10 min pre-incubation, 50 nM Ab: Lag Time” value (relipidated TF [7]) was 29 min and the “TGA with 10 min pre-incubation, 50 nM Ab: Peak IIa” value (relipidated TF [7]) was 21 nM. The “TGA with 10 min pre-incubation, 50 nM Ab: ttPeak” value (relipidated TF [7]) was 39.7 min, the “TGA with 10 min pre-incubation, 100 nM Ab: % Peak IIa” value (relipidated TF [7]) was 6% and the “TGA with 10 min pre-incubation, 100 nM Ab: Lag Time” value (relipidated TF [7]) was 32.1 min. For the same binder, the “TGA with 10 min pre-incubation, 100 nM Ab: Peak IIa” value (relipidated TF [7]) was 17 nM, the “TGA with 10 min pre-incubation, 100 nM Ab: ttPeak” value (relipidated TF [7]) was 43.2 min and the binding result [8] was “no binding (tested: 15 µg/ml (100 nM))”. The “TGA without pre-incubation, 10 nM Ab: % ETP” value (relipidated TF [9]) was 58%, the “TGA without pre-incubation, 10 nM Ab: % Peak IIa” value (relipidated TF [9]) was 24% and the “TGA without pre-incubation, 10 nM Ab: ETP” value (relipidated TF [9]) was 1330 nM·min. The “TGA without pre-incubation, 10 nM Ab: Lag Time” value (relipidated TF [9]) was 12.4 min, the “TGA without pre-incubation, 10 nM Ab: Peak IIa” value (relipidated TF [9]) was 84 nM and the “TGA without pre-incubation, 10 nM Ab: ttPeak” value (relipidated TF [9]) was 20.7 min. For the same binder, the “TGA without pre-incubation, 50 nM Ab: % Peak IIa” value (relipidated TF [9]) was 8%, the “TGA without pre-incubation, 50 nM Ab: Lag Time” value (relipidated TF [9]) was 33.1 min and the “TGA without pre-incubation, 50 nM Ab: Peak IIa” value (relipidated TF [9]) was 29 nM. The “TGA without pre-incubation, 50 nM Ab: ttPeak” value (relipidated TF [9]) was 43.2 min, the “TGA without pre-incubation, 100 nM Ab: % Peak IIa” value (relipidated TF [9]) was 6% and the “TGA without pre-incubation, 100 nM Ab: Lag Time” value (relipidated TF [9]) was 38.1 min. For the same binder, the “TGA without pre-incubation, 100 nM Ab: Peak IIa” value (relipidated TF [9]) was 22 nM and the “TGA without pre-incubation, 100 nM Ab: ttPeak” value (relipidated TF [9]) was 48.3 min.

B4: 1F (antibody, human IgG1, V domains shown)
VH: EVQLLESGGGLVQPGGSLRLSCAASGFTFSDYAMGWVRQAPGKGLEWVSTISGSGGLTYYADSVKGRFTISRDNSKNTLYLQMNSLRAEDTAVYYCAKAPYGYYMDVWGKGTTVTVSS
VL: not shown
notes: human IgG1
Binder B4 has a Kd (human TF ECD-His6 [1]) of 1.28 nM, a Kd (cynomolgus TF ECD-His6 [2]) of 1.43 nM and a Kd (human TF ECD-His6 [3]) of 0.31 nM. The Kd (cynomolgus TF ECD-His6 [4]) was 0.26 nM, the “decrease of peak IIa concentration, TGA with 10 min pre-incubation, 100 nM Ab” value (relipidated TF [5]) was 93% and the “decrease of peak IIa concentration, TGA without pre-incubation, 100 nM Ab” value (relipidated TF [5]) was 92%. The “TGA without pre-incubation, 10 nM Ab: % ETP” value (relipidated TF [6]) was 58%, the “TGA without pre-incubation, 10 nM Ab: % Peak IIa” value (relipidated TF [6]) was 21% and the “TGA without pre-incubation, 10 nM Ab: ETP” value (relipidated TF [6]) was 1400 nM·min. For the same binder, the “TGA without pre-incubation, 10 nM Ab: Lag Time” value (relipidated TF [6]) was 12.1 min, the “TGA without pre-incubation, 10 nM Ab: Peak IIa” value (relipidated TF [6]) was 83 nM and the “TGA without pre-incubation, 10 nM Ab: ttPeak” value (relipidated TF [6]) was 19.8 min. For the same binder, the “TGA without pre-incubation, 50 nM Ab: % Peak IIa” value (relipidated TF [6]) was 8%, the “TGA without pre-incubation, 50 nM Ab: Lag Time” value (relipidated TF [6]) was 27.2 min and the “TGA without pre-incubation, 50 nM Ab: Peak IIa” value (relipidated TF [6]) was 32 nM. For the same binder, the “TGA without pre-incubation, 50 nM Ab: ttPeak” value (relipidated TF [6]) was 36.8 min, the “TGA without pre-incubation, 100 nM Ab: % Peak IIa” value (relipidated TF [6]) was 7% and the “TGA without pre-incubation, 100 nM Ab: Lag Time” value (relipidated TF [6]) was 25.9 min. The “TGA without pre-incubation, 100 nM Ab: Peak IIa” value (relipidated TF [6]) was 29 nM, the “TGA without pre-incubation, 100 nM Ab: ttPeak” value (relipidated TF [6]) was 37.9 min and the binding result [8] was “no binding (tested: 15 µg/ml (100 nM))”.

B5: 25G (antibody, human IgG1, kappa, V domains shown)
VH: QVQLVQSGAEVKKPGASVKVSCKASGYTFRSYGISWVRQAPGQGLEWMGWVAPYNGNTNYAQKLQGRVTMTTDTSTSTAYMELRSLRSDDTAVYYCARDAGTYSPYGYGMDVWGQGTTVTVSS
VL: DIQMTQSPSTLSASVGDRVTITCRASQSISSWLAWYQQKPGKAPKLLIYKASSLESGVPSRFSGSGSGTEFTLTISSLQPDDFATYYCQQFQSLPPFTFGGGTKVEIKR
notes: Human anti-TF IgG1
For B5, the “% IL8, 2.56 nM Ab” value [10] was 60%, the “% IL8, 6.4 nM Ab” value [10] was 22% and the “% IL8, 16 nM Ab” value [10] was 16%. For the same binder, the “% IL8, 40 nM Ab” value [10] was 10%, the “% IL8, 100 nM Ab” value [10] was 9% and the “% FVIIa” value [11] was 93%. For the same binder, the “% FXa, 12.5 nM Ab” value [12] was 99%, the “% FXa, 25 nM Ab” value [12] was 109% and the “% FXa, 100 nM Ab” value [12] was 116%.

B6: 25A (antibody, human IgG1, V domains shown)
VH: B5 VH with R30D, S31V, V51I, Y106F
VL: DIQMTQSPSTLSASVGDRVTITCRASQSISSWLAWYQQKPGKAPKLLIYKASSLESGVPSRFSGSGSGTEFTLTISSLQPDDFATYYCQQFQSLPPFTFGGGTKVEIK
notes: Human IgG1; also called antibody 25A
For B6, the Kd (pig TF-His) was 18.7 nM and the Kd (rabbit TF-His) was 50.5 nM.
